Source: the supplement of paper PMC5998384

Assays:
HeLa Kyoto [1] = experiment: solubility in G1/S (NP-40 vs SDS abundance) (log2 ratio); higher = more soluble; conditions: cell cycle stage: G1/S
HeLa Kyoto [2] = experiment: solubility change mitosis vs G1/S (difference of NP-40 vs SDS log2 ratios) (log2 ratio difference); higher = more soluble in mitosis
HeLa Kyoto [3] = experiment: melting temperature (median over replicates), in situ; higher = more thermally stable
HeLa Kyoto [4] = experiment: thermal stability score vs G1/S (z-score of summed log2 fold changes over temperatures); higher = more thermally stable than in G1/S
[5] = cell cycle stage: early G1 (4.5 h after nocodazole release)
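For melting temperature (median over replicates), in situ in this document: HeLa Kyoto cells synchronized by double thymidine or nocodazole block, proteins quantified by TMT10plex mass spectrometry, three independent biological replicates.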
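For solubility change mitosis vs G1/S (difference of NP-40 vs SDS log2 ratios) in this document: synchronized HeLa Kyoto cells (double thymidine block for G1/S, nocodazole release for mitosis), protein amounts in NP-40 versus SDS lysates quantified by mass spectrometry, three biological replicates.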
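For solubility in G1/S (NP-40 vs SDS abundance) in this document: HeLa Kyoto cells arrested at G1/S by double thymidine block, proteins quantified by TMT10plex mass spectrometry in mild NP-40 versus SDS extracts, three biological replicates.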
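For thermal stability score vs G1/S (z-score of summed log2 fold changes over temperatures) in this document: synchronized HeLa Kyoto cells, proteins quantified by TMT10plex mass spectrometry, three biological replicates, mitosis taken 0.5 h after nocodazole release, G1/S directly after double thymidine block.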

Sequence	solubility in G1/S (log2) (HeLa Kyoto [1])	solubility change mitosis (log2) (HeLa Kyoto [2])	melting temperature (HeLa Kyoto [3]; cell cycle stage: G1/S) [°C]	melting temperature (HeLa Kyoto [3]; cell cycle stage: mitosis) [°C]	thermal stability score (HeLa Kyoto [4]; [5])	thermal stability score (HeLa Kyoto [4]; cell cycle stage: mitosis)
MFWKFDLHSSSHIDTLLEREDVTLKELMDEEDVLQECKAQNRKLIEFLLKAECLEDLVSFIIEEPPQDMDEKIRYKYPNISCELLTSDVSQMNDRLGEDESLLMKLYSFLLNDSPLNPLLASFFSKVLSILISRKPEQIVDFLKKKHDFVDLIIKHIGTSAIMDLLLRLLTCIEPPQPRQDVLNWLNEEKIIQRLVEIVHPSQEEDRHSNASQSLCEIVRLSRDQMLQIQNSTEPDPLLATLEKQEIIEQLLSNIFHKEKNESAIVSAIQILLTLLETRRPTFEGHIEICPPGMSHSACSVNKSVLEAIRGRLGSFHELLLEPPKKSVMKTTWGVLDPPVGNTRLNVIRLISSLLQTNTSSINGDLMELNSIGVILNMFFKYTWNNFLHTQVEICIALILASPFENTENATITDQDSTGDNLLLKHLFQKCQLIERILEAWEMNEKKQAEGGRRHGYMGHLTRIANCIVHSTDKGPNSALVQQLIKDLPDEVRERWETFCTSSLGETNKRNTVDLVTTCHIHSSSDDEIDFKETGFSQDSSLQQAFSDYQMQQMTSNFIDQFGFNDEKFADQDDIGNVSFDRVSDINFTLNTNESGNIALFEACCKERIQQFDDGGSDEEDIWEEKHIAFTPESQRRSSSGSTDSEESTDSEEEDGAKQDLFEPSSANTEDKMEVDLSEPPNWSANFDVPMETTHGAPLDSVGSDVWSTEEPMPTKETGWASFSEFTSSLSTKDSLRSNSPVEMETSTEPMDPLTPSAAALAVQPEAAGSVAMEASSDGEEDAESTDKVTETVMNGGMKETLSLTVDAKTETAVFKSEEGKLSTSQDAACKDAEECPETAEAKCAAPRPPSSSPEQRTGQPSAPGDTSVNGPV [PPP6R3]	-0.236	-0.12	54.9	54.1	-1.86	-1.84
MTVARPSVPAALPLLGELPRLLLLVLLCLPAVWGDCGLPPDVPNAQPALEGRTSFPEDTVITYKCEESFVKIPGEKDSVICLKGSQWSDIEEFCNRSCEVPTRLNSASLKQPYITQNYFPVGTVVEYECRPGYRREPSLSPKLTCLQNLKWSTAVEFCKKKSCPNPGEIRNGQIDVPGGILFGATISFSCNTGYKLFGSTSSFCLISGSSVQWSDPLPECREIYCPAPPQIDNGIIQGERDHYGYRQSVTYACNKGFTMIGEHSIYCTVNNDEGEWSGPPPECRGKSLTSKVPPTVQKPTTVNVPTTEVSPTSQKTTTKTTTPNAQATRSTPVSRTTKHFHETTPNKGSGTTSGTTRLLSGHTCFTLTGLLGTLVTMGLLT [CD55]	-0.786	-0.0285	63.5	63.9	-1.88	-1.77
MEVLAAETTSQQERLQAIAEKRKRQAEIENKRRQLEDERRQLQHLKSKALRERWLLEGTPSSASEGDEDLRRQMQDDEQKTRLLEDSVSRLEKEIEVLERGDSAPATAKENAAAPSPVRAPAPSPAKEERKTEVVMNSQQTPVGTPKDKRVSNTPLRTVDGSPMMKAAMYSVEITVEKDKVTGETRVLSSTTLLPRQPLPLGIKVYEDETKVVHAVDGTAENGIHPLSSSEVDELIHKADEVTLSEAGSTAGAAETRGAVEGAARTTPSRREITGVQAQPGEATSGPPGIQPGQEPPVTMIFMGYQNVEDEAETKKVLGLQDTITAELVVIEDAAEPKEPAPPNGSAAEPPTEAASREENQAGPEATTSDPQDLDMKKHRCKCCSIM [PALM]	0.0461	0.116	55.2	57	-0.779	-1.02
MMAAGAALALALWLLMPPVEVGGAGPPPIQDGEFTFLLPAGRKQCFYQSAPANASLETEYQVIGGAGLDVDFTLESPQGVLLVSESRKADGVHTVEPTEAGDYKLCFDNSFSTISEKLVFFELIFDSLQDDEEVEGWAEAVEPEEMLDVKMEDIKESIETMRTRLERSIQMLTLLRAFEARDRNLQEGNLERVNFWSAVNVAVLLLVAVLQVCTLKRFFQDKRPVPT [TMED1]	0.437	-0.147	55.1	57.2	2.89	2.9
MAVATAAAVLAALGGALWLAARRFVGPRVQRLRRGGDPGLMHGKTVLITGANSGLGRATAAELLRLGARVIMGCRDRARAEEAAGQLRRELRQAAECGPEPGVSGVGELIVRELDLASLRSVRAFCQEMLQEEPRLDVLINNAGIFQCPYMKTEDGFEMQFGVNHLGHFLLTNLLLGLLKSSAPSRIVVVSSKLYKYGDINFDDLNSEQSYNKSFCYSRSKLANILFTRELARRLEGTNVTVNVLHPGIVRTNLGRHIHIPLLVKPLFNLVSWAFFKTPVEGAQTSIYLASSPEVEGVSGRYFGDCKEEELLPKAMDESVARKLWDISEVMVGLLK [RDH14]	-0.158	0.0299	51.8	51.6	0.98	0.294
